# B1: Lead CXCR5 Antibody (humanized IgG4 anti-CXCR5 antibody) (antibody, V domains shown)
# VH: QVQLKESGPGLVAPSESLSITCTVSGFSLIDYGVNWIRQPPGKGLEWLGVIWGDGTTYYNPSLKSRLSISKDNSKSQVFLKVTSLTTDDTAMYYCARIVYWGQGTLVTVSA
# VL: DIVMTQAAPSVAVTPGASVSISCRSSKSLLHSSGKTYLYWFLQRPGQSPQLLIYRLSSLASGVPDRFSGSGSGTAFTLRISRVEAEDVGVYYCMQHLEYPYTFGGGTKLEIKR
# Key:
# [1] = target: 28mer peptide of the CXCR5 antigen; test: Ag-ELISA; DS in PBS, 5°C, 1 month
# [2] = target: 28mer peptide of the CXCR5 antigen; test: Antigen-ELISA; PB 10 mM pH 7.50, T0
# [3] = target: 28mer peptide of the CXCR5 antigen; test: Antigen-ELISA; TRIS 10 mM pH 8.5, T0
# [4] = target: 28mer peptide of the CXCR5 antigen; test: Antigen-ELISA; Glycine 10 mM pH 7, T0
# [5] = target: 28mer peptide of the CXCR5 antigen; test: Antigen-ELISA; Arginine 10 mM pH 8, T0
# [6] = target: 28mer peptide of the CXCR5 antigen; test: Antigen-ELISA; Acetate 10 mM pH 5.00, T0
# [7] = target: 28mer peptide of the CXCR5 antigen; test: Antigen-ELISA; Citrate 10 mM pH 5.50, T0
# [8] = target: 28mer peptide of the CXCR5 antigen; test: Antigen-ELISA; Citrate 10 mM pH 7.00, T0
# [9] = target: 28mer peptide of the CXCR5 antigen; test: Antigen-ELISA; Saline 150 mM pH 6.00, T0
# [10] = target: 28mer peptide of the CXCR5 antigen; test: Antigen-ELISA; Succinate 10 mM pH 6.00, T0
# [11] = target: 28mer peptide of the CXCR5 antigen; test: Antigen-ELISA; citrate 10 mM prototype D, T0
# [12] = target: 28mer peptide of the CXCR5 antigen; test: Antigen-ELISA; acetate 10 mM prototype B, T0
# [13] = target: 28mer peptide of the CXCR5 antigen; test: Antigen-ELISA; acetate 10 mM prototype D, T0
# [14] = target: 28mer peptide of the CXCR5 antigen; test: Antigen-ELISA; PBS 155 mM, light stress, 24 h
# [15] = target: 28mer peptide of the CXCR5 antigen; test: Antigen-ELISA; standard run with LA_09_27B, T0
# [16] = target: 28mer peptide of the CXCR5 antigen; test: Antigen-ELISA; standard run with LA_09_27D, T0
# [17] = target: 28mer peptide of the CXCR5 antigen; test: Antigen-ELISA; standard run with LA_09_28B, T0
# [18] = target: 28mer peptide of the CXCR5 antigen; test: Antigen-ELISA; standard run with LA_09_28D, T0
# [19] = target: 28mer peptide of the CXCR5 antigen; test: Antigen-ELISA; standard run with LA_09_29A, T0
# [20] = target: 28mer peptide of the CXCR5 antigen; test: Antigen-ELISA; histidine 10 mM prototype D, T0
# [21] = target: 28mer peptide of the CXCR5 antigen; test: Potency (Antigen ELISA); stored +25°C, 1 month
# [22] = target: 28mer peptide of the CXCR5 antigen; test: Potency (Antigen ELISA); stored +5°C, 12 months
# [23] = target: 28mer peptide of the CXCR5 antigen; test: Potency (Antigen ELISA); stored +5°C, 18 months
# [24] = target: 28mer peptide of the CXCR5 antigen; test: Potency (Antigen ELISA); stored -20°C, 12 months
# [25] = target: 28mer peptide of the CXCR5 antigen; test: Antigen-ELISA; PBS 155 mM, polypropylene, 24 h +40°C
# [26] = target: 28mer peptide of the CXCR5 antigen; test: Antigen-ELISA; PB 5 mM pH 6.50, after 1 week at +40°C
# [27] = target: 28mer peptide of the CXCR5 antigen; test: Antigen-ELISA; PB 5 mM pH 7.00, after 1 week at +40°C
# [28] = target: 28mer peptide of the CXCR5 antigen; test: Antigen-ELISA; PB 5 mM pH 7.50, after 1 week at +40°C
# [29] = target: 28mer peptide of the CXCR5 antigen; test: Antigen-ELISA; PB 10 mM pH 7.50, after 1 week at +40°C
# [30] = target: 28mer peptide of the CXCR5 antigen; test: Antigen-ELISA; PBS 155 mM, clear glass type I, 24 h +40°C
# [31] = target: 28mer peptide of the CXCR5 antigen; test: Antigen-ELISA; PBS 155 mM, clear glass type I as T0, 24 h
# [32] = target: 28mer peptide of the CXCR5 antigen; test: Antigen-ELISA; Arginine 10 mM pH 8, after 1 week at +40°C
# [33] = target: 28mer peptide of the CXCR5 antigen; test: Antigen-ELISA; Histidine 10 mM pH 6, after 1 week at +40°C
# [34] = target: 28mer peptide of the CXCR5 antigen; test: Antigen-ELISA; Citrate 10 mM pH 6.00, after 1 week at +40°C
# [35] = target: 28mer peptide of the CXCR5 antigen; test: Antigen-ELISA; Saline 150 mM pH 6.00, after 1 week at +40°C
# [36] = target: 28mer peptide of the CXCR5 antigen; test: Antigen-ELISA; Histidine 10 mM pH 6.5, after 1 week at +40°C
# [37] = target: 28mer peptide of the CXCR5 antigen; test: Antigen-ELISA; Succinate 10 mM pH 5.00, after 1 week at +40°C
# [38] = target: 28mer peptide of the CXCR5 antigen; test: Antigen-ELISA; Succinate 10 mM pH 6.00, after 1 week at +40°C
# [39] = target: 28mer peptide of the CXCR5 antigen; test: Antigen-ELISA; PBS 155 mM, clear glass type I + V2A piece, 24 h
# [40] = target: 28mer peptide of the CXCR5 antigen; test: ELISA potency (binding); 100 mg/mL, Arginine (20) + NaCl (2), T zero
# [41] = target: 28mer peptide of the CXCR5 antigen; test: Antigen-ELISA; PB 5 mM pH 6.50, after mechanical stress 350 rpm 2.5 h
# [42] = target: 28mer peptide of the CXCR5 antigen; test: Antigen-ELISA; PB 5 mM pH 7.00, after mechanical stress 350 rpm 2.5 h
# [43] = target: 28mer peptide of the CXCR5 antigen; test: ELISA potency (binding); 100 mg/mL, Lysine (30) + NaCl (2), 7 days at 40°C
# [44] = target: 28mer peptide of the CXCR5 antigen; test: ELISA potency (binding); 100 mg/mL, Sucrose (60) + NaCl (2), 7 days at 40°C
binder,measurement,setting,value
B1,EC50 %,[1],83%
same,EC50 %,[2],117%
same,EC50 %,[3],118%
same,EC50 %,[4],127%
same,EC50 %,[5],121%
same,EC50 %,[6],147%
same,EC50 %,[7],112%
same,EC50 %,[8],59.9%
same,EC50 %,[9],96.2%
same,EC50 %,[10],112%
same,EC50 %,[11],94%
same,EC50 %,[12],112%
same,EC50 %,[13],91%
same,EC50 %,[14],72.3%
same,EC50 %,[15],100%
same,EC50 %,[16],100%
same,EC50 %,[17],100%
same,EC50 %,[18],100%
same,EC50 %,[19],100%
same,EC50 %,[20],169%
same,EC50 value (in comparison to reference),[21],121%
same,EC50 value (in comparison to reference),[22],93%
same,EC50 value (in comparison to reference),[23],119%
same,EC50 value (in comparison to reference),[24],96%
same,EC50 %,[25],107%
same,EC50 %,[26],77%
same,EC50 %,[27],68%
same,EC50 %,[28],141%
same,EC50 %,[29],68%
same,EC50 %,[30],131%
same,EC50 %,[31],62.3%
same,EC50 %,[32],88%
same,EC50 %,[33],77%
same,EC50 %,[34],98%
same,EC50 %,[35],80.9%
same,EC50 %,[36],175%
same,EC50 %,[37],157%
same,EC50 %,[38],126%
same,EC50 %,[39],80.8%
same,rel. potency [%],[40],144%
same,EC50 %,[41],150%
same,EC50 %,[42],110%
same,rel. potency [%],[43],264%
same,rel. potency [%],[44],188%
